Measured values: patent US20220331371A1, “DEVELOPMENT OF EMBRYONIC-LIKE TISSUE FROM STEM CELLS” (The Regents of the University of Michigan, priority 2019, published 2022)

Legend:
Type in all cases: cell-based, human
hPGCLCs in P-ELS = assay: hPGCLC specification in P-ELS; conditions: P-ELS treated with 0.4 μM or 2 μM
Description: (§1) Cell lines. hPSC lines used in this study include H1 human ES cell (WA01, WiCell; NIH registration number: 0043), H9 human ES cell (WA09, WiCell; NIH registration number: 0062) and 1196a (a human iPSC line from the University of Michigan Pluripotent Stem Cell Core31). All hPSC lines have been authenticated by original sources as well as in-house by immunostaining for pluripotency markers and successful differentiation to the three germ layers. All hPSC lines are maintained in a feeder-free system for at least ten passages and authenticated as karyotypically normal. Karyotype analysis was performed by Cell Line Genetics. All hPSC lines are tested negative for mycoplasma contamination (LookOut Mycoplasma PCR Detection Kit, Sigma-Aldrich). Cell culture. hPSCs were maintained in a standard feeder-free culture system using mTeSR medium (mTeSR; STEMCELL Technologies) or TeSR-E8 medium (Essential 8 or E8; STEMCELL Technologies) and lactate dehydrogenase-elevating virus (LDEV)-free, human ES cell-qualified reduced growth factor basement membrane matrix Geltrex (Thermo Fisher Scientific; derived from Engelbreth-Holm-Swarm tumors similarly to Matrigel). Cell cultures were visually examined during each passage to ensure absence of spontaneously differentiated, mesenchymal-like cells in culture. All hPSCs were used before reaching P70. Device fabrication. […]

[1] = system: PrePS-EPI-like cells in P-ELS; assay: Posterior primitive streak-like cell development in P-ELS with antagonists in the induction channel; conditions: prolonged culture to t=48 h, IWR1 10 μM in induction channel
Description: as §1, with “fabrication. The microfluidic device consists of a polydimethylsiloxane (PDMS) structure layer bonded to a coverslip. The PDMS structure layer is made by mixing PDMS curing agent and base polymer (Sylgard 184; Dow Coming) at a ratio of 1:10 before casting PDMS prepolymer onto a microfabricated silicon mold and baking at 110° C. for 40 min. Medium reservoirs (8 mm in diameter) and gel-loading ports (1.2 mm in diameter) were then punched into the PDMS structure layer using Harris Uni-Core punch tools (Ted Pella). After cleaning with ethanol and air plasma activation, the PDMS structure layer was bonded to a coverslip before baking at 80° C. overnight. Before usage, the microfluidic device was sterilized under UV light for 30 min.” for “fabrication.”

[2] = system: embryonic-like sacs (P-ELS, A-ELS); assay: Microfluidic generation of asymmetric embryonic-like sacs with morphogens in the induction channel; conditions: for Cyst phenotype obtained: 50 ng ml^−1 each, supplemented into the induction channel
Description: Cell lines. hPSC lines used in this study include H1 human ES cell (WA01, WiCell; NIH registration number: 0043), H9 human ES cell (WA09, WiCell; NIH registration number: 0062) and 1196a (a human iPSC line from the University of Michigan Pluripotent Stem Cell Core31). All hPSC lines have been authenticated by original sources as well as in-house by immunostaining for pluripotency markers and successful differentiation to the three germ layers. All hPSC lines are maintained in a feeder-free system for at least ten passages and authenticated as karyotypically normal. Karyotype analysis was performed by Cell Line Genetics. All hPSC lines are tested negative for mycoplasma contamination (LookOut Mycoplasma PCR Detection Kit, Sigma-Aldrich). Cell culture. hPSCs were maintained in a standard feeder-free culture system using mTeSR medium (mTeSR; STEMCELL Technologies) or TeSR-E8 medium (Essential 8 or E8; STEMCELL Technologies) and lactate dehydrogenase-elevating virus (LDEV)-free, human ES cell-qualified reduced growth factor basement membrane matrix Geltrex (Thermo Fisher Scientific; derived from Engelbreth-Holm-Swarm tumors similarly to Matrigel). Cell cultures were visually examined during each passage to ensure absence of spontaneously differentiated, mesenchymal-like cells in culture. All hPSCs were used before reaching P70. Device fabrication. The microfluidic device consists of a polydimethylsiloxane (PDMS) structure layer bonded to a coverslip. The PDMS structure layer is made by mixing PDMS curing agent and base polymer (Sylgard 184; Dow Coming) at a ratio of 1:10 before casting PDMS prepolymer onto a microfabricated silicon mold and baking at 110° C. for 40 min. Medium reservoirs (8 mm in diameter) and gel-loading ports (1.2 mm in diameter) were then punched into the PDMS structure layer using Harris Uni-Core punch tools (Ted Pella). After cleaning with ethanol and air plasma activation, the PDMS structure layer was bonded to a coverslip before baking at 80° C. overnight. Before usage, the microfluidic device was sterilized under UV light for 30 min. Geltrex diluted in mTeSR (8 mg ml^−1) was then injected into the central gel channel and allowed to cure for 10 min at 37° C. in an incubator. The central gel channel was separated from the cell loading and induction channels by trapezoid-shaped supporting posts. Diluted Geltrex matrix was contained in the gel channel by supporting posts owing to surface tension. Upon gelation, Geltrex matrix contracts, generating concave Geltrex pockets between supporting posts. mTeSR medium was immediately added to medium reservoirs to fill both the cell loading and induction channels. The microfluidic device was then incubated at 37° C. and 5% CO2, for 24 h to stabilize the Geltrex matrix in the gel channel. Microfluidic assays. Colonies of hPSCs were dissociated by Accutasc. (Sigma-Aldrich) at 37° C., for 10 min before being suspended in mTeSR as single cells. Cells were then centrifuged and resuspended in mTeSR, containing 10 μM Y27632 (Tocris), a ROCK inhibitor that prevents dissociation-induced apoptosis of hPSCs32, at a concentration of 8×10^6 cells per ml. After aspirating mTeSR from medium reservoirs, 10 μl hPSC suspension was introduced into the cell-loading channel (t=−18 h), The microfluidic device was then tilted 90° for 10 min to allow cell settlement into Geltrex pockets and their clustering and adhesion to Geltrex matrix. Medium reservoirs were then refilled with fresh mTeSR medium containing 10 μM Y27632. […]

Molecule: O=C(NNc1nc2cc(F)ccc2n2cccc12)c1cnccn1 [SC144]
- Effect on hPGCLC specification (hPGCLCs in P-ELS): did not affect

Molecule: O=C(Nc1cccc2cccnc12)c1ccc(N2C(=O)[C@@H]3[C@H](C2=O)[C@@H]2C=C[C@H]3C2)cc1 [IWR1]
- Effect on progressive development of P-ELS [1]: does not affect

B1: WNT3A: exogenous Wnt protein (R&D Systems) (protein, UniProt P56704 19-352, looked up)
Protein Wnt-3a: SYPIWWSLAVGPQYSSLGSQPILCASIPGLVPKQLRFCRNYVEIMPSVAEGIKIGIQECQHQFRGRRWNCTTVHDSLAIFGPVLDKATRESAFVHAIASAGVAFAVTRSCAEGTAAICGCSSRHQGSPGKGWKWGGCSEDIEFGGMVSREFADARENRPDARSAMNRHNNEAGRQAIASHMHLKCKCHGLSGSCEVKTCWWSQPDFRAIGDFLKDKYDSASEMVVEKHRESRGWVETLRPRYTYFKVPTERDLVYYEASPNFCEPNPETGSFGTRDRTCNVSSHGIDGCDLLCCGRGHNARAERRREKCRCVFHWCCYVSCQECTRVYDVHTCK
- Cyst phenotype obtained [2]: columnar epiblast-like cysts containing OCT4^+NANOG^+, COX2^−EOMES^−T^− EPILCs
- Requirement for embryonic-like sac formation ([2]; induction channel, with or without BMP4): dispensable

B2: Activin A: exogenous activin protein (R&D Systems) (protein, UniProt P08476 311-426, looked up)
Inhibin beta A chain: GLECDGKVNICCKKQFFVSFKDIGWNDWIIAPSGYHANYCEGECPSHIAGTSGSSLSFHSTVINHYRMRGHSPFANLKSCCVPTKLRPMSMLYYDDGQNIIKKDIQNMIVEECGCS
modifications: Inhibin beta A chain
- Cyst phenotype obtained [2]: cysts containing OCT4^+NANOG^+EPILCs intermixed with EOMES^+T^+CDX2^− anterior primitive streak-like cells

B3: BMP4: Bone Morphogenic Protein 4 (R&D Systems) (protein, UniProt P12644 293-408, looked up)
Bone morphogenetic protein 4: SPKHHSQRARKKNKNCRRHSLYVDFSDVGWNDWIVAPPGYQAFYCHGDCPFPLADHLNSTNHAIVQTLVNSVNSSIPKACCVPTELSAISMLYLDEYDKVVLKNYQEMVVEGCGCR
- Cysts differentiated into asymmetrical E-cadherin+ sacs (P-ELS) ([2]; BMP4 50 ng ml^−1 in induction channel from t=0 h, t=36 h): 92%
- Cysts patterned to amniotic ectoderm-like fate (A-ELS) ([2]; BMP4 in induction channel, IWP2 and noggin in cell-loading channel, t=36 h): 96%
